Drawing on publication PMC3988464, this text covers Kd, inhibition of CXCL8-induced neutrophil trans-migration (Transwell) and koff for five substances.

Where two headings read alike, the source gives them in different places.

For test [1], the target named is Wild type CXCL8 (human). The test is described as follows: SPR.
In test [2] the target is Wild type CXCL8 (human). Nature of the test: SPR. This is another data set of the same source. Background: SPR reads the build-up and loss of mass on a sensor chip optically.
The target of test [3] is CXCR2 (Homo sapiens) (UniProt P25025). The conditions noted are these: cited from earlier work.
Test [4] has as its target Wild type CXCL8 (human).
Test [5] concerns the target Isolated Link module of human TSG-6 (Link_TSG6) (human) (UniProt P98066). The test is described as follows: SPR.
Test [6] has the same target. Nature of the test: SPR. This is another data set of the same source.
Test [7] has as its target CXCL8 (Homo sapiens) (UniProt P10145). The conditions noted are these: cited from earlier work.

Sequence of Isolated Link module of human TSG-6 (Link_TSG6) (human) (P98066 36-129): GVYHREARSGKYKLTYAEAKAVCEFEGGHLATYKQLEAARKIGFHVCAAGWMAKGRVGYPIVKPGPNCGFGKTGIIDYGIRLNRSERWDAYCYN
Sequence of Full-length, wild type recombinant human TSG-6 (P98066 18-277): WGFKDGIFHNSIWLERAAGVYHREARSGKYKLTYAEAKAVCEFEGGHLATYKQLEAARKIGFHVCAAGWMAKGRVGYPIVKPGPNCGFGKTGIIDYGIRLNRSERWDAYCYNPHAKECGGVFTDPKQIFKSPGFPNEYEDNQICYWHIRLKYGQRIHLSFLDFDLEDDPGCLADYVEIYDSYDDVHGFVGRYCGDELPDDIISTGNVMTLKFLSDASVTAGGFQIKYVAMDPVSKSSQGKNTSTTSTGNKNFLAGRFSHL
Sequence of Evasin-3 (P0C8E8 21-86): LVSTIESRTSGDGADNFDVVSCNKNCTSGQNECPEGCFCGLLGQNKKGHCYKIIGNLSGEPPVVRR
Sequence of CXCR2 (Homo sapiens) (P25025 whole entry): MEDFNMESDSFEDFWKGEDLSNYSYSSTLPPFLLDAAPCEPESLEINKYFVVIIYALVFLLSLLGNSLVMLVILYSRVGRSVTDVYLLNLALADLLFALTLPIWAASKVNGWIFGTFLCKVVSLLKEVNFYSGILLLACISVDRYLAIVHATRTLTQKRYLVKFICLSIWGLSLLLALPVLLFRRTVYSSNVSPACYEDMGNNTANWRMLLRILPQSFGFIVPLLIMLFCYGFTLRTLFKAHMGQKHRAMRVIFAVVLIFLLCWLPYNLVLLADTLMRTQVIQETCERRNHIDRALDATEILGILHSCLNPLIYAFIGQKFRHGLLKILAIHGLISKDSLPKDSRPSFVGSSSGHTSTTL
Sequence of CXCL8 (P10145 28-99): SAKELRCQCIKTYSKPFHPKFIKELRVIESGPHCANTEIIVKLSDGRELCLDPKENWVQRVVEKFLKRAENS
Sequence of CXCL8 (Homo sapiens) (P10145 28-99): as above
Sequence of Isolated Link module of human TSG-6 (Link_TSG6) (P98066 36-129): as the sequence (P98066 36-129) above

For orientation: Kd means the equilibrium constant for the complex coming apart. For the substance “Full-length, wild type recombinant human TSG-6 (from UniProt P98066 18-277) (natural protein)”, the dissociation constant (Kd) came out at 20 nM in test [1] and 74 nM in test [2].
Take CXCL8 (from UniProt P10145): the Kd in test [3] is 1 nM.
As for “Isolated Link module of human TSG-6 (Link_TSG6) (from UniProt P98066 36-129) (domain or fragment)”, the inhibition of CXCL8-induced neutrophil trans-migration (Transwell) in test [4] worked out at 10 nM.
In general, koff refers to the rate constant with which the complex falls apart. On to Wild type CXCL8 (ligand), for which, in test [5], the dissociation constant Kd came to 6 nM and the koff is 0.00032 s⁻¹. In test [6], this substance gave a Kd of 21 nM and a koff of 0.0011 s⁻¹.
With Evasin-3 (from UniProt P0C8E8), the dissociation constant Kd in test [7] is 1 nM.
